Laboratory results published in patent US20110027290A1 (Eli Lilly, published 2011).

T1: human IL-17 (human, UniProt Q16552 20-155, limits assumed)
T1 sequence: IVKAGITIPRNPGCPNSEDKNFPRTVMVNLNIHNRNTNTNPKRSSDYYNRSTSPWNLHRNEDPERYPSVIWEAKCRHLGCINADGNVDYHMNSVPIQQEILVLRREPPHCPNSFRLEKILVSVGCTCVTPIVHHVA

T2: human IL-17F (human, UniProt Q96PD4 31-163)
T2 sequence (looked up): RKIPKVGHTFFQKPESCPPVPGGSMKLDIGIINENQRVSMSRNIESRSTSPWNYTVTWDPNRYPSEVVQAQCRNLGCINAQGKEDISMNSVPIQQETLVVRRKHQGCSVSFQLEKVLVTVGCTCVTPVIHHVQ

T3: human IL-22 (human, UniProt Q9GZX6 34-179)
T3 construct: Negative control antigen
T3 sequence (looked up): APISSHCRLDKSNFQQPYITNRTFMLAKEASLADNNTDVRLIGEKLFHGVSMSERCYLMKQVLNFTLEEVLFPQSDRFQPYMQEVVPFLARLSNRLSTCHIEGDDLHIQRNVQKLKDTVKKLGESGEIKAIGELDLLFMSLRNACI

T4: human IL-17C (human, UniProt Q9P0M4 19-197)
T4 sequence (looked up): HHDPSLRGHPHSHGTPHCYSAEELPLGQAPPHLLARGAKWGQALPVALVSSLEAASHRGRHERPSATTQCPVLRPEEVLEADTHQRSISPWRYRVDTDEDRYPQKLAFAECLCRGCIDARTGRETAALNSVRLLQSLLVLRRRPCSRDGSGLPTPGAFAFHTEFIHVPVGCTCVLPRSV

T5: human IL-17B (human, UniProt Q9UHF5 21-180)
T5 sequence (looked up): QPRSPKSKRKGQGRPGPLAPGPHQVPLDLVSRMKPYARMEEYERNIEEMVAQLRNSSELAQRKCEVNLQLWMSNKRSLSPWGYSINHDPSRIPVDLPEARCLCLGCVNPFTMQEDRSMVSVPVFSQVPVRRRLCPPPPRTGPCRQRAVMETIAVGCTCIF

T6: human IL-17E (human, UniProt Q9H293 33-177)
T6 sequence (looked up): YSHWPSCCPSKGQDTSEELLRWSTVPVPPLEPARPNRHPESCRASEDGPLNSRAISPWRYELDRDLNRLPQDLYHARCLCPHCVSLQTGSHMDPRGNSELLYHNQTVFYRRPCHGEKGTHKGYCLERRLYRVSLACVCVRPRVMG

T7: mouse IL-17 (murine, UniProt Q62386 26-158, limits assumed)
T7 construct: also called murine IL-17
T7 sequence: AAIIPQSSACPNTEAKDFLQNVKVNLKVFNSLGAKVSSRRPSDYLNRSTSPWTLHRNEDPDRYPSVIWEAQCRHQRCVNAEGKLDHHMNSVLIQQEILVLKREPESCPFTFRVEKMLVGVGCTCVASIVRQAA

T8: human IL-17D (human, UniProt Q8TAD2 18-202, limits assumed)
T8 sequence (looked up): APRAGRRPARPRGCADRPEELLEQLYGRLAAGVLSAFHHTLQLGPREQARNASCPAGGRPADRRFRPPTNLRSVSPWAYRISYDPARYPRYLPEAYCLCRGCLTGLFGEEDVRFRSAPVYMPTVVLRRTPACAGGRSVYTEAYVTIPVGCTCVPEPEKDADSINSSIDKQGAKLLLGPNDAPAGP

T9: cynomolgus monkey IL-17 (cynomolgus monkey, UniProt Q16552 24-155 (human entry), limits assumed)
T9 construct: Not commercially available; cloned and expressed; also called CYNO IL-17
T9 chain: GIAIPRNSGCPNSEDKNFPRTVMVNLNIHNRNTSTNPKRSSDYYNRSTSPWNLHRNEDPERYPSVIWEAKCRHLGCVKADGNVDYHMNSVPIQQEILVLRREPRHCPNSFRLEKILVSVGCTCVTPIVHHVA

B1: Fab 121 (Fab, V domains shown)
VH: QVQLVQSGAEVKKPGSSVKVSCKASGYSFTDYHISWVRQAPGQGLEWMGVINPEYGTTDYNQRFKGRVTITADESTSTAYMELSSLRSEDTAVYYCARYDYFTGTGAYWGQGTLVTVSS
VL: DIVMTQTPLSLSVTPGQPASISCRSSQSLKHSRGNTFLHWYLQKPGQSPQLLIYKVSNRFIGVPDRFSGSGSGTDFTLKISRVEAEDVGVYYCSQSTHYPFTFGQGTKLEIK
notes: constant domains are not specified
B2: mAb 131 (full-length, IgG4 Fc region) (antibody, V domains shown)
VH: QVQLVQSGAEVKKPGSSVKVSCKASGYSFTDYHIHWVRQAPGQGLEWMGVINPEYGTTDYNQRFKGRVTITADESTSTAYMELSSLRSEDTAVYYCARYDYFTGTGVYWGQGTLVTVSS
VL: DIVMTQTPLSLSVTPGQPASISCRSSKSLVHSRGNTYLHWYLQKPGQSPQLLIYKVSNRFIGVPDRFSGSGSGTDFTLKISRVEAEDVGVYYCSQSTHYPFTFGQGTKLEIK
B3: mAb 104 (full-length, IgG4 Fc region) (antibody, V domains shown)
VH: QVQLVQSGAEVKKPGSSVKVSCKASGYSFTDYHIHWVRQAPGQGLEWMGVINPEYGTTDYNQRFKGRVTITADESTSTAYMELSSLRSEDTAVYYCARYDYFTGTGAYWGQGTLVTVSS
VL: DIVMTQTPLSLSVTPGQPASISCRSSKSLVHSRGNTFLHWYLQKPGQSPQLLIYKVSTRFSGVPDRFSGSGSGTDFTLKISRVEAEDVGVYYCSQSTHYPFTFGQGTKLEIK
notes: also called full-length mAb 104
B4: mAb 121 (full-length, IgG4 Fc region) (antibody, V domains shown)
VH: QVQLVQSGAEVKKPGSSVKVSCKASGYSFTDYHISWVRQAPGQGLEWMGVINPEYGTTDYNQRFKGRVTITADESTSTAYMELSSLRSEDTAVYYCARYDYFTGTGAYWGQGTLVTVSS
VL: DIVMTQTPLSLSVTPGQPASISCRSSQSLKHSRGNTFLHWYLQKPGQSPQLLIYKVSNRFIGVPDRFSGSGSGTDFTLKISRVEAEDVGVYYCSQSTHYPFTFGQGTKLEIK
notes: Full-length mAb with an IgG4 Fc region
B5: mAb 103 (full-length, IgG4 Fc region) (antibody, V domains shown)
VH: QVQLVQSGAEVKKPGSSVKVSCKASGYSFTDYHIHWVRQAPGQGLEWMGVINPEYGTTDYNQRFKGRVTITADESTSTAYMELSSLRSEDTAVYYCARYDYFTGTGAYWGQGTLVTVSS
VL: DIVMTQTPLSLSVTPGQPASISCRSSQSLRHSRGNTYLHWYLQKPGQSPQLLIYKVSNIFSGVPDRFSGSGSGTDFTLKISRVEAEDVGVYYCSQSTHYPFTFGQGTKLEIK
notes: also called full-length mAb 103
B6: mAb 126 (full-length, IgG4 Fc region) (antibody, V domains shown)
VH: QVQLVQSGAEVKKPGSSVKVSCKASGYSFTDYHIHWVRQAPGQGLEWMGVINPMYGTTDYNQRFKGRVTITADESTSTAYMELSSLRSEDTAVYYCARYDYFTGTGVYWGQGTLVTVSS
VL: DIVMTQTPLSLSVTPGQPASISCRSSRSLVHSRGNTYLHWYLQKPGQSPQLLIYKVSNRFIGVPDRFSGSGSGTDFTLKISRVEAEDVGVYYCSQSTHLPFTFGQGTKLEIK
notes: as for B4
B7: mAb 118 (full-length, IgG4 Fc region) (antibody, V domains shown)
VH: QVQLVQSGAEVKKPGSSVKVSCKASGYSFTDYHISWVRQAPGQGLEWMGVINPMYGTTDYNQRFKGRVTITADESTSTAYMELSSLRSEDTAVYYCARYDYYTGTGVYWGQGTLVTVSS
VL: DIVMTQTPLSLSVTPGQPASISCRSSQSLVHSRGNTFLHWYLQKPGQSPQLLIYKVSNRFIGVPDRFSGSGSGTDFTLKISRVEAEDVGVYYCSQSTHYPFTFGQGTKLEIK
B8: Fab 126 (Fab, V domains shown)
VH: QVQLVQSGAEVKKPGSSVKVSCKASGYSFTDYHIHWVRQAPGQGLEWMGVINPMYGTTDYNQRFKGRVTITADESTSTAYMELSSLRSEDTAVYYCARYDYFTGTGVYWGQGTLVTVSS
VL: DIVMTQTPLSLSVTPGQPASISCRSSRSLVHSRGNTYLHWYLQKPGQSPQLLIYKVSNRFIGVPDRFSGSGSGTDFTLKISRVEAEDVGVYYCSQSTHLPFTFGQGTKLEIK
notes: as for B1

Columns and labels:
[1] = biological target: T1, human IL-17; assay: cell-based or functional assay
[2] = biological target: T2, human IL-17F; assay: ELISA, antigen coated on plate
Experimental: (§1) In an exemplary assay, ELISA plate wells (Nunc Immuno Maxisorp) are coated with 100 μl (0.5 ng/ml in 1× coating buffer (BioFx)) of IL-17 family member proteins (R&D Systems) sealed and incubated overnight at 4° C. The solution in the well is removed by flicking and blocking buffer (200 μl 1.5% BSA in PBS) is added. The plates are incubated on a rotating shaker for 30 minutes at room temperature. Then 100 μl of an antibody to be tested is added per well at varying concentrations (e.g., 2, 0.4, 0.08, 0.016, 0.0032 and 0 μg/ml). The plates are again incubated overnight (4° C.) followed by warming on a rotating shaker (60 min room temp). Each plate-well is then washed five times with buffer (1× Ish buffer, BioFX). After washing, an appropriate commercially available HRP-conjugated secondary antibody (1:2000 in PBS with 1.5% BSA) is added (100 μl/well). Plates are re-incubated on a rotating shaker (60 min. room temp.) followed by buffer washing (5×) as described above. The colorimetric signal is developed by adding TMB (100 μl/well) until saturation (approx 3-5 min.) then further development is ended by adding stop solution (100 μl/well, BioFX). The color signal is measured at 450 nm absorbance using any appropriate ELISA plate reader. The degree of binding is proportional to color signal production.

[3] = biological target: T3, human IL-22; assay: ELISA, antigen coated on plate
Experimental: as §1

[4] = biological target: T4, human IL-17C; assay: ELISA, antigen coated on plate
Experimental: as §1

[5] = biological target: T5, human IL-17B; assay: ELISA, antigen coated on plate
Experimental: as §1

[6] = biological target: T6, human IL-17E; assay: ELISA, antigen coated on plate
Experimental: as §1

[7] = biological target: T7, mouse IL-17; assay: ELISA, antigen coated on plate
Experimental: as §1

[8] = biological target: T8, human IL-17D; assay: ELISA, antigen coated on plate
Experimental: as §1

[9] = biological target: T1, human IL-17; assay: SPR (BIACORE 2000), mAb captured on Protein A, IL-17 injected, 25 C, 1:1 with mass transfer model;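 further: CM4 chip with immobilized Protein A, HBS-EP running buffer pH 7.4, IL-17 titrated downward from 10 nM in twofold steps, 20 min dissociation phase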
Experimental: (§2) A BIACORE® 2000 instrument is used to measure antigen-antibody binding kinetics and affinity. The instrument utilizes the optical properties of surface plasmon resonance to detect alteration in protein concentration of interacting molecules within a dextran biosensor matrix. Except as noted, all reagents and materials are purchased from BIACORE® AB. All measurements are performed at 25° C. Samples are resuspended in HBS-EP buffer to a final concentration of 2 μg/ml (150 mM sodium chloride, 3 mM EDTA, 0.005% (w/v) surfactant P-20, and 10 mM HEPES, pH 7.4). Protein A is immobilized on flow cells 1 to 4 of a CM4 sensor chip at a level of 500 response units using an amine coupling kit.
(§3) Binding is evaluated using multiple analytical cycles. […] Association and dissociation rates for each cycle are evaluated using a “1:1 with mass transfer” binding model in the BIAevaluation software.

[10] = biological target: New Zealand white rabbit IL-17 (rabbit); assay: SPR (BIACORE 2000), mAb captured on Protein A; biphasic, heterogeneous ligand model, first of two affinities
New Zealand white rabbit IL-17 (rabbit), sequence (chain, as listed by the source limits assumed, form in doubt): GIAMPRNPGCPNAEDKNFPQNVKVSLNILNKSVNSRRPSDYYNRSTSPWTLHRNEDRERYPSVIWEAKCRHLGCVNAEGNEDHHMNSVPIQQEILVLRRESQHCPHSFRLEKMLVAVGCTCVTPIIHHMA

[11] = biological target: New Zealand white rabbit IL-17 (rabbit); assay: SPR (BIACORE 2000), mAb captured on Protein A; biphasic, heterogeneous ligand model, second of two affinities
[12] = biological target: T9, cynomolgus monkey IL-17; assay: SPR (BIACORE 2000), mAb captured on Protein A, IL-17 injected, 25 C, 1:1 with mass transfer model;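 further: CM4 chip with immobilized Protein A, HBS-EP running buffer pH 7.4, IL-17 titrated downward from 10 nM in twofold steps, 20 min dissociation phase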
Experimental: as §2, §3

Molecule	Kd [9]	koff [9]	kon [9]	Kd [10]	koff [10]	kon [10]	Kd [11]	koff [11]	kon [11]	Kd [12]	koff [12]	kon [12]	further results
IgG4 negative control (antibody)													AVG GROα, pg/ml at 2.56 pM antibody (60 ng/ml IL-17, HT-29 cells) [1]: 1240 pg/ml; AVG GROα, pg/ml at 12.8 pM antibody (60 ng/ml IL-17, HT-29 cells) [1]: 1350 pg/ml; AVG GROα, pg/ml at 64.0 pM antibody (60 ng/ml IL-17, HT-29 cells) [1]: 1380 pg/ml; AVG GROα, pg/ml at 320.0 pM antibody (60 ng/ml IL-17, HT-29 cells) [1]: 1390 pg/ml; AVG GROα, pg/ml at 1,600.0 pM antibody (60 ng/ml IL-17, HT-29 cells) [1]: 1370 pg/ml; AVG GROα, pg/ml at 8,000.0 pM antibody (60 ng/ml IL-17, HT-29 cells) [1]: 1420 pg/ml; AVG GROα, pg/ml at 40,000.0 pM antibody (60 ng/ml IL-17, HT-29 cells) [1]: 1300 pg/ml
B1													binding result [2]: no binding; binding result [3]: no binding; binding result [4]: no binding; binding result [5]: no binding; binding result [6]: no binding; binding result [7]: no binding; binding result [8]: no binding
B2	2.9 pM	1.6e-05 s⁻¹	5.4e+06 M⁻¹ s⁻¹										
B3	1.7 pM	1.1e-05 s⁻¹	7.7e+06 M⁻¹ s⁻¹	1900 pM	0.00018 s⁻¹	100000 M⁻¹ s⁻¹	20000 pM	0.07 s⁻¹	4e+06 M⁻¹ s⁻¹	0.5 pM	5e-06 s⁻¹	9.4e+06 M⁻¹ s⁻¹	
B4	1.6 pM	1.5e-05 s⁻¹	1e+07 M⁻¹ s⁻¹	510 pM	0.0004 s⁻¹	800000 M⁻¹ s⁻¹	1500 pM	0.021 s⁻¹	1.7e+07 M⁻¹ s⁻¹	1.1 pM	7e-06 s⁻¹	7.8e+06 M⁻¹ s⁻¹	decrease of the mean mouse KC level after human IL-17 injection in mice, 20 µg/mouse, compared to a control antibody [1]: ~3 fold
B5	1.4 pM	1.5e-05 s⁻¹	1.1e+07 M⁻¹ s⁻¹	2000 pM	0.00036 s⁻¹	180000 M⁻¹ s⁻¹	18100 pM	0.192 s⁻¹	1.06e+07 M⁻¹ s⁻¹	1.3 pM	1.1e-05 s⁻¹	8.8e+06 M⁻¹ s⁻¹	
B6										0.8 pM			IC50, IL-17-induced GROα secretion from HT-29 cells [1]: ~560 pM
B7	3.9 pM	2e-05 s⁻¹	5e+06 M⁻¹ s⁻¹										
B8													binding result [3]: no binding; binding result [4]: no binding; binding result [5]: no binding; binding result [6]: no binding; binding result [7]: no binding; binding result [8]: no binding
